Measured values taken from patent US20080112961A1 (MacroGenics, published 2008).

Legend:
[1] = target: T1, FcγRIIIA (form not stated) (UniProt P08637 17-208, limits assumed); test: ELISA
T1 construct: also called FcγRIIIA (ELISA)

[2] = target: T2, FcγRIIB (form not stated) (UniProt P31994 43-217, limits assumed); test: ELISA
T2 construct: also called FcγRIIB (ELISA)
T2 sequence (looked up): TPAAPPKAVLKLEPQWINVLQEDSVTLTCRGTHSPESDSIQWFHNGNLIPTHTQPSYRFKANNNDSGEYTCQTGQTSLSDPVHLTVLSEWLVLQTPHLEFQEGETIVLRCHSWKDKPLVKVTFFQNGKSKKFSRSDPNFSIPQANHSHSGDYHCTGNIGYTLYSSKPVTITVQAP

T1 sequence (P08637 17-208 F176V limits assumed, form in doubt): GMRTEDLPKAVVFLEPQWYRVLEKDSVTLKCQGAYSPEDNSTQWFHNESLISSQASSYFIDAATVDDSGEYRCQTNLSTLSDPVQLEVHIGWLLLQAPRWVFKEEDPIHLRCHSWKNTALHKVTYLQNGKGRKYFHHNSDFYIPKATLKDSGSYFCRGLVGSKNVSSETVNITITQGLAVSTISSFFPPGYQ

Row | fold increase vs WT [1] | fold increase vs WT [2] | binding result [2] | further results | Binder
1 | 1.5 x | 6 x |  |  | ch4-4-20 A231V, Q386H, V412M (antibody) heavy: ASTKGPSVFPLAPSSKSTSGGTAALGCLVKDYFPEPVTVSWNSGALTSGVHTFPAVLQSSGLYSLSSVVTVPSSSLGTQTYICNVNHKPSNTKVDKKVEPKSCDKTHTCPPCPVPELLGGPSVFLFPPKPKDTLMISRTPEVTCVVVDVSHEDPEVKFNWYVDGVEVHNAKTKPREEQYNSTYRVVSVLTVLHQDWLNGKEYKCKVSNKALPAPIEKTISKAKGQPREPQVYTLPPSRDELTKNQVSLTCLVKGFYPSDIAVEWESNGHPENNYKTTPPVLDSDGSFFLYSKLTMDKSRWQQGNVFSCSVMHEALHNHYTQKSLSLSPGK
2 | 0.5 x | 5 x |  |  | ch4-4-20 A378V, N390I, V422I (antibody) heavy: ASTKGPSVFPLAPSSKSTSGGTAALGCLVKDYFPEPVTVSWNSGALTSGVHTFPAVLQSSGLYSLSSVVTVPSSSLGTQTYICNVNHKPSNTKVDKKVEPKSCDKTHTCPPCPAPELLGGPSVFLFPPKPKDTLMISRTPEVTCVVVDVSHEDPEVKFNWYVDGVEVHNAKTKPREEQYNSTYRVVSVLTVLHQDWLNGKEYKCKVSNKALPAPIEKTISKAKGQPREPQVYTLPPSRDELTKNQVSLTCLVKGFYPSDIVVEWESNGQPENIYKTTPPVLDSDGSFFLYSKLTVDKSRWQQGNIFSCSVMHEALHNHYTQKSLSLSPGK
3 |  | 10 x |  |  | ch4-4-20 C229Y, A287T, V379M, P396L, L443V (antibody) heavy: ASTKGPSVFPLAPSSKSTSGGTAALGCLVKDYFPEPVTVSWNSGALTSGVHTFPAVLQSSGLYSLSSVVTVPSSSLGTQTYICNVNHKPSNTKVDKKVEPKSCDKTHTCPPYPAPELLGGPSVFLFPPKPKDTLMISRTPEVTCVVVDVSHEDPEVKFNWYVDGVEVHNTKTKPREEQYNSTYRVVSVLTVLHQDWLNGKEYKCKVSNKALPAPIEKTISKAKGQPREPQVYTLPPSRDELTKNQVSLTCLVKGFYPSDIAMEWESNGQPENNYKTTPLVLDSDGSFFLYSKLTVDKSRWQQGNVFSCSVMHEALHNHYTQKSLSVSPGK
4 | 2.5 x | 6 x |  |  | ch4-4-20 D221Y, M252I, A330G, A339T, T359N, V422I, H433L (antibody) heavy: ASTKGPSVFPLAPSSKSTSGGTAALGCLVKDYFPEPVTVSWNSGALTSGVHTFPAVLQSSGLYSLSSVVTVPSSSLGTQTYICNVNHKPSNTKVDKKVEPKSCYKTHTCPPCPAPELLGGPSVFLFPPKPKDTLIISRTPEVTCVVVDVSHEDPEVKFNWYVDGVEVHNAKTKPREEQYNSTYRVVSVLTVLHQDWLNGKEYKCKVSNKALPGPIEKTISKTKGQPREPQVYTLPPSRDELNKNQVSLTCLVKGFYPSDIAVEWESNGQPENNYKTTPPVLDSDGSFFLYSKLTVDKSRWQQGNIFSCSVMHEALLNHYTQKSLSLSPGK
5 | 3 x |  | binds |  | ch4-4-20 D280E, S354F, A431D, L441I (antibody) heavy: ASTKGPSVFPLAPSSKSTSGGTAALGCLVKDYFPEPVTVSWNSGALTSGVHTFPAVLQSSGLYSLSSVVTVPSSSLGTQTYICNVNHKPSNTKVDKKVEPKSCDKTHTCPPCPAPELLGGPSVFLFPPKPKDTLMISRTPEVTCVVVDVSHEDPEVKFNWYVEGVEVHNAKTKPREEQYNSTYRVVSVLTVLHQDWLNGKEYKCKVSNKALPAPIEKTISKAKGQPREPQVYTLPPFRDELTKNQVSLTCLVKGFYPSDIAVEWESNGQPENNYKTTPPVLDSDGSFFLYSKLTVDKSRWQQGNVFSCSVMHEDLHNHYTQKSISLSPGK
6 |  |  | no binding |  | ch4-4-20 E269K, K290N, Q311R, H433Y (antibody) heavy: ASTKGPSVFPLAPSSKSTSGGTAALGCLVKDYFPEPVTVSWNSGALTSGVHTFPAVLQSSGLYSLSSVVTVPSSSLGTQTYICNVNHKPSNTKVDKKVEPKSCDKTHTCPPCPAPELLGGPSVFLFPPKPKDTLMISRTPEVTCVVVDVSHKDPEVKFNWYVDGVEVHNAKTNPREEQYNSTYRVVSVLTVLHRDWLNGKEYKCKVSNKALPAPIEKTISKAKGQPREPQVYTLPPSRDELTKNQVSLTCLVKGFYPSDIAVEWESNGQPENNYKTTPPVLDSDGSFFLYSKLTVDKSRWQQGNVFSCSVMHEALYNHYTQKSLSLSPGK
7 | 1 x |  |  |  | ch4-4-20 F243L, R255L, E318K (antibody) heavy: ASTKGPSVFPLAPSSKSTSGGTAALGCLVKDYFPEPVTVSWNSGALTSGVHTFPAVLQSSGLYSLSSVVTVPSSSLGTQTYICNVNHKPSNTKVDKKVEPKSCDKTHTCPPCPAPELLGGPSVFLLPPKPKDTLMISLTPEVTCVVVDVSHEDPEVKFNWYVDGVEVHNAKTKPREEQYNSTYRVVSVLTVLHQDWLNGKKYKCKVSNKALPAPIEKTISKAKGQPREPQVYTLPPSRDELTKNQVSLTCLVKGFYPSDIAVEWESNGQPENNYKTTPPVLDSDGSFFLYSKLTVDKSRWQQGNVFSCSVMHEALHNHYTQKSLSLSPGK
8 | 1.6 x | 5.4 x |  |  | ch4-4-20 F243L, V305I, A378D, F404S, P396L (antibody, also called MgFc54) heavy: ASTKGPSVFPLAPSSKSTSGGTAALGCLVKDYFPEPVTVSWNSGALTSGVHTFPAVLQSSGLYSLSSVVTVPSSSLGTQTYICNVNHKPSNTKVDKKVEPKSCDKTHTCPPCPAPELLGGPSVFLLPPKPKDTLMISRTPEVTCVVVDVSHEDPEVKFNWYVDGVEVHNAKTKPREEQYNSTYRVVSILTVLHQDWLNGKEYKCKVSNKALPAPIEKTISKAKGQPREPQVYTLPPSRDELTKNQVSLTCLVKGFYPSDIDVEWESNGQPENNYKTTPLVLDSDGSSFLYSKLTVDKSRWQQGNVFSCSVMHEALHNHYTQKSLSLSPGK
9 |  |  | no binding |  | ch4-4-20 K246E, V284M, V308A (antibody) heavy: ASTKGPSVFPLAPSSKSTSGGTAALGCLVKDYFPEPVTVSWNSGALTSGVHTFPAVLQSSGLYSLSSVVTVPSSSLGTQTYICNVNHKPSNTKVDKKVEPKSCDKTHTCPPCPAPELLGGPSVFLFPPEPKDTLMISRTPEVTCVVVDVSHEDPEVKFNWYVDGVEMHNAKTKPREEQYNSTYRVVSVLTALHQDWLNGKEYKCKVSNKALPAPIEKTISKAKGQPREPQVYTLPPSRDELTKNQVSLTCLVKGFYPSDIAVEWESNGQPENNYKTTPPVLDSDGSFFLYSKLTVDKSRWQQGNVFSCSVMHEALHNHYTQKSLSLSPGK
10 |  |  |  | fold decrease vs WT [2]: 0.5 x | ch4-4-20 K246I, Q362H, K370E (antibody) heavy: ASTKGPSVFPLAPSSKSTSGGTAALGCLVKDYFPEPVTVSWNSGALTSGVHTFPAVLQSSGLYSLSSVVTVPSSSLGTQTYICNVNHKPSNTKVDKKVEPKSCDKTHTCPPCPAPELLGGPSVFLFPPIPKDTLMISRTPEVTCVVVDVSHEDPEVKFNWYVDGVEVHNAKTKPREEQYNSTYRVVSVLTVLHQDWLNGKEYKCKVSNKALPAPIEKTISKAKGQPREPQVYTLPPSRDELTKNHVSLTCLVEGFYPSDIAVEWESNGQPENNYKTTPPVLDSDGSFFLYSKLTVDKSRWQQGNVFSCSVMHEALHNHYTQKSLSLSPGK
11 |  |  | no binding |  | ch4-4-20 K334E, E380D, G446V (antibody) heavy: ASTKGPSVFPLAPSSKSTSGGTAALGCLVKDYFPEPVTVSWNSGALTSGVHTFPAVLQSSGLYSLSSVVTVPSSSLGTQTYICNVNHKPSNTKVDKKVEPKSCDKTHTCPPCPAPELLGGPSVFLFPPKPKDTLMISRTPEVTCVVVDVSHEDPEVKFNWYVDGVEVHNAKTKPREEQYNSTYRVVSVLTVLHQDWLNGKEYKCKVSNKALPAPIEETISKAKGQPREPQVYTLPPSRDELTKNQVSLTCLVKGFYPSDIAVDWESNGQPENNYKTTPPVLDSDGSFFLYSKLTVDKSRWQQGNVFSCSVMHEALHNHYTQKSLSLSPVK
12 |  | 3 x |  |  | ch4-4-20 P244A, K326I, C367R, S375I, K447T (antibody) heavy: ASTKGPSVFPLAPSSKSTSGGTAALGCLVKDYFPEPVTVSWNSGALTSGVHTFPAVLQSSGLYSLSSVVTVPSSSLGTQTYICNVNHKPSNTKVDKKVEPKSCDKTHTCPPCPAPELLGGPSVFLFAPKPKDTLMISRTPEVTCVVVDVSHEDPEVKFNWYVDGVEVHNAKTKPREEQYNSTYRVVSVLTVLHQDWLNGKEYKCKVSNIALPAPIEKTISKAKGQPREPQVYTLPPSRDELTKNQVSLTRLVKGFYPIDIAVEWESNGQPENNYKTTPPVLDSDGSFFLYSKLTVDKSRWQQGNVFSCSVMHEALHNHYTQKSLSLSPGT
13 |  |  |  | fold decrease vs WT [1]: 0.5 x | ch4-4-20 P291S, K288E, H268L, A141V (antibody) heavy: ASTKGPSVFPLAPSSKSTSGGTAVLGCLVKDYFPEPVTVSWNSGALTSGVHTFPAVLQSSGLYSLSSVVTVPSSSLGTQTYICNVNHKPSNTKVDKKVEPKSCDKTHTCPPCPAPELLGGPSVFLFPPKPKDTLMISRTPEVTCVVVDVSLEDPEVKFNWYVDGVEVHNAETKSREEQYNSTYRVVSVLTVLHQDWLNGKEYKCKVSNKALPAPIEKTISKAKGQPREPQVYTLPPSRDELTKNQVSLTCLVKGFYPSDIAVEWESNGQPENNYKTTPPVLDSDGSFFLYSKLTVDKSRWQQGNVFSCSVMHEALHNHYTQKSLSLSPGK
14 |  |  | no binding |  | ch4-4-20 V303I, V369F, M428L (antibody) heavy: ASTKGPSVFPLAPSSKSTSGGTAALGCLVKDYFPEPVTVSWNSGALTSGVHTFPAVLQSSGLYSLSSVVTVPSSSLGTQTYICNVNHKPSNTKVDKKVEPKSCDKTHTCPPCPAPELLGGPSVFLFPPKPKDTLMISRTPEVTCVVVDVSHEDPEVKFNWYVDGVEVHNAKTKPREEQYNSTYRVISVLTVLHQDWLNGKEYKCKVSNKALPAPIEKTISKAKGQPREPQVYTLPPSRDELTKNQVSLTCLFKGFYPSDIAVEWESNGQPENNYKTTPPVLDSDGSFFLYSKLTVDKSRWQQGNVFSCSVLHEALHNHYTQKSLSLSPGK
15 |  | 7 x |  |  | ch4-4-20 K317N, F423-deleted (antibody) EPKSCDKTHTCPPCPAPELLGGPSVFLFPPKPKDTLMISRTPEVTCVVVDVSHEDPEVKFNWYVDGVEVHNAKTKPREEQYNSTYRVVSVLTVLHQDWLNGNEYKCKVSNKALPAPIEKTISKAKGQPREPQVYTLPPSREEMTKNQVSLTCLVKGFYPSDIAVEWESNGQPENNYKTTPPVLDSDGSFFLYSKLTVDKSRWQQGNVSCSVMHEALHNHYTQKSLSLSPGK
16 |  | 4 x |  |  | ch4-4-20 T215P, K274N, A287G, K334N, L365V, P396L (antibody) PEPKSCDKTHTCPPCPAPELLGGPSVFLFPPKPKDTLMISRTPEVTCVVVDVSHEDPEVNFNWYVDGVEVHNGKTKPREEQYNSTYRVVSVLTVLHQDWLNGKEYKCKVSNKALPAPIENTISKAKGQPREPQVYTLPPSRDELTKNQVSVTCLVKGFYPSDIAVEWESNGQPENNYKTTPLVLDSDGSFFLYSKLTVDKSRWQQGNVFSCSVMHEALHNHYTQKSLSLSPGK
